Publication PMC8605023
pIC50, pKi: −log10 of the molar value.

Key:
[1] = target: MAP1LC3C ATG8 domain (human) (UniProt Q9BXW4)
USP7 (human) = USP7 (human) (UniProt Q93009)
[2] = target: G3BP2 NTF2 domain (human) (UniProt Q9UN86)
[3] = target: G3BP1 NTF2 domain (human) (UniProt Q13283)
Chain of G3BP1 NTF2 domain (human) (Q13283 11-133): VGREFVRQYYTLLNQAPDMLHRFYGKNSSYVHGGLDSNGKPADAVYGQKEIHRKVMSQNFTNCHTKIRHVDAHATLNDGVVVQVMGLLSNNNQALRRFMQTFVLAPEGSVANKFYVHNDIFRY

Chain of USP7 (human) (Q93009 whole entry, the tested form may be a part): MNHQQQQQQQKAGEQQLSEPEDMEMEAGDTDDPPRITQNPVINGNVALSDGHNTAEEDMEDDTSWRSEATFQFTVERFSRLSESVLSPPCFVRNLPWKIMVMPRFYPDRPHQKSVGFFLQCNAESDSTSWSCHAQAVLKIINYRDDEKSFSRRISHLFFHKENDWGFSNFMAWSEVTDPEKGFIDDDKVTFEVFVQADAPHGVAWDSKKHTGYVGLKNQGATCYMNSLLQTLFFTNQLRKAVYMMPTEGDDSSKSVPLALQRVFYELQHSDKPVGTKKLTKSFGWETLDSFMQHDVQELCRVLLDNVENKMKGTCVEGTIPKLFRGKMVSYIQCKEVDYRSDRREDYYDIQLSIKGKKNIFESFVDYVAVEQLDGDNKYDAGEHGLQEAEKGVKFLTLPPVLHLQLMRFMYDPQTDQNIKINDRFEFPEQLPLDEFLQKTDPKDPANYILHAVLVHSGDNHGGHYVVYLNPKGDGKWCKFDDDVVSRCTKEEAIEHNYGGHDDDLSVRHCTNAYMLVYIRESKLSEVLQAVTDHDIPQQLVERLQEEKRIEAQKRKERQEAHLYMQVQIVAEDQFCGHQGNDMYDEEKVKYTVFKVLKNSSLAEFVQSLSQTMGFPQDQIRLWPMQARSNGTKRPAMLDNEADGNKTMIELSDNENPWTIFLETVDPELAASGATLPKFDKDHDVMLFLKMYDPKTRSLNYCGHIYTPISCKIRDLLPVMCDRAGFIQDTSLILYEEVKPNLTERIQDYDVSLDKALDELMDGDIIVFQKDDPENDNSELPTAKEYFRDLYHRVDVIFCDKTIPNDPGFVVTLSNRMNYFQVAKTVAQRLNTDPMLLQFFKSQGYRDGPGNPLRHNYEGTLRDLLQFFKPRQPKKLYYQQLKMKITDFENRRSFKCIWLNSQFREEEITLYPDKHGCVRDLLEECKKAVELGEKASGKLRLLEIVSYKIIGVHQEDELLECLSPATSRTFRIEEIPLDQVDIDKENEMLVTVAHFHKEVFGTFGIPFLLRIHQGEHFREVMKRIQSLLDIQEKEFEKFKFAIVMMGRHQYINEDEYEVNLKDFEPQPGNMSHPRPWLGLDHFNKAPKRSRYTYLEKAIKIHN
Chain of MAP1LC3C ATG8 domain (human) (Q9BXW4 1-126): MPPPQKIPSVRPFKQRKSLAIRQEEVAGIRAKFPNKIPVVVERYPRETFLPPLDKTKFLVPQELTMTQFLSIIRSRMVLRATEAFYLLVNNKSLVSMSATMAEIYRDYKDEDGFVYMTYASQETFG
Chain of G3BP2 NTF2 domain (human) (Q9UN86 11-133): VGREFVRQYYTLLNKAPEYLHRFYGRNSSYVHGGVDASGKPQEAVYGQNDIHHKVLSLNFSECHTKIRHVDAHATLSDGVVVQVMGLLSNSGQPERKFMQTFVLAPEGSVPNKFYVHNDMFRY

Substance | pIC50 [1] | pKi [1] | pIC50 (USP7 (human)) | pKi (USP7 (human)) | pIC50 [2] | pIC50 [3]
NSP3 peptide 2019-2034 (Sars-CoV2) | 2.82 | 3.68 | 3.57 | 4.43 | – | –
N peptide 12-26 (Sars-CoV2) | – | – | – | – | 5.00 | 4.77
N peptide 405-419 (Sars-CoV2) | – | – | 2.98 | 3.82 | – | –
